Reference: paper PMC7414021, “Dodecin as carrier protein for immunizations and bioengineering applications” (Scientific Reports, 2020)

Tests used:
[1] = molecular target: T1, mtDod(WT) (Mycobacterium tuberculosis, UniProt I6XY36)
T1 construct: gene Rv1498A

[2] = molecular target: mtDod-mmACP (Mycobacterium tuberculosis | Mus musculus); test: SDS-PAGE (dodecamer stable in SDS)
[3] = molecular target: mtDod-mmACP (Mycobacterium tuberculosis | Mus musculus); test: SEC
[4] = molecular target: the molecule itself; test: SDS-PAGE (dodecamer stable in SDS)

For Cc1cc2nc3c(=O)[nH]c(=O)nc-3n(C[C@H](O)[C@H](O)[C@H](O)COP(=O)(O)O)c2cc1C [FMN], the “thermocyclic fluorescence assay (quenching of FMN fluorescence on binding to the)” value [1] was “fluorescence quenching that is observed when flavins bind to dodecin”.

In the case of mtDod-mmACP, the stoichiometry N [2] is reported as 12 and the stoichiometry N [3] is reported as 12.

B1: Mycobacterium tuberculosis dodecin wild type (natural protein)
chain: MSNHTYRVIEIVGTSPDGVDAAIQGGLARAAQTMRALDWFEVQSIRGHLVDGAVAHFQVTMKVGFRLEDS
notes: also called mtDod(WT); mtDod; copies: 12
In the case of B1, the “stoichiometry N” value [4] is reported as 12.
